Results from patent US20120149645A1, “COMPOSITIONS AND MODULATION OF MYOCYTE ENHANCER FACTOR 2 (MEF2)” (EMORY UNIVERSITY, priority 2010, published 2012).

Tests used:
SN4741 cells [1] = assay: Subcellular localization of over-expressed MEF2D constructs; assay type: cell-based, mouse; conditions: over-expressed in SN4741 cells
Excerpt: (A) Lack of mitochondrial localization by ΔN30MEF2D. […] VDAC, PARP and c-Raf are Mt, Nu and Cy markers, respectively. Control indicates the control vector group. (B) Immunocytochemistry analysis of mitochondrial localization of transfected Flag-MEF2D. […] Experiments were repeated four times. (C, D) Requirement of mtHsp70 for mitochondria-targeting of MEF2D (n=4; **p<0.01). Control indicates untreated. […]. Knocking down mouse mtHsp70 by siRNA reduced MEF2D level in purified mitochondria from SN4741 cells (C). […] MnSOD is a known mtHsp70-imported mitochondrial matrix protein.
(A) Diagrams of Mt2DVP16 and MtND6. Mt2DVP16 was constructed by fusion of transactivation domain (TAD) of VP16 with DNA-binding domain of MEF2D and a mitochondria-targeting sequence (Mito). […] (C) Over-expression of Mt2DVP16 attenuated MEF2D siRNA-induced reduction of ND6 expression (n=3, **P<0.01).
Control indicates the group co-tranfected with control vector.
SN4741 cells or primary midbrain DA neurons were plated on glass slides in 24-well plates. Localizations of endogenous and exogenous MEF2D were visualized on a Zeiss LSM5 PASCAL confocal microscope. […] Quantification of colocalization of signals was done using “Colocalization Analysis” program of software Image Pro (Media Cybernetics). […]

SN4741 cells [2] = assay: PI (propidium iodide) staining of cell death; assay type: cell-based, mouse; conditions: SN4741 cells infected with lentivirus 24 hours, then MPP+ 5 μM for 24 hours
Experimental: (A) SN4741 cells were infected with lentiviruses for 24 hours and followed by exposure to MPP+ (5 μM) for 24 hours. Cell death was analyzed by PI (propidium iodide) staining (n=4; scale bar, 30 μm). The control indicated the control vector. (B) Quantification of the number of PI positive cells in (A) (n=50 cells, **P<0.01). Experiments were repeated four times. Control indicates the group transfected with the control vector.

B1: Mt2Ddn: Mitochondria-targeting dominant-negative MEF2D: mouse MEF2D 1-131aa with mitochondria-targeting signal, lacks the transactivation domain (protein, UniProt Q63943 1-131, looked up, fragment)
chain: MGRKKIQIQRITDERNRQVTFTKRKFGLMKKAYELSVLCDCEIALIIFNHSNKLFQYASTDMDKVLLKYTEYNEPHESRTNADIIETLRKKGFNGCDSPEPDGEDSLEQSPLLEDKYRRASEELDGLFRRY
modifications: mitochondria-targeting signal added
**Q.** How did the “mitochondrial localization by immunocytochemical staining (MitoTracker)” value (SN4741 cells [1]) turn out when B1 was run?
**A.** Its value is “targeted exclusively to mitochondria”.

**Q.** And the “number of propidium iodide (PI) positive cells” value (SN4741 cells [2])?
**A.** The value was “increases”.
